According to patent publication US20200003757A1, “METHOD OF IDENTIFYING AGENTS THAT AFFECT MATURATION, SURVIVAL AND MYELINATION” (KADIMASTEM, LTD., priority 2011, published 2020):

What was measured:
human oligodendrocytes = test: Human oligodendrocytes and hESC-OPC survival assay (dead cell labeling and O4 labeling); assay type: cell-based; settings: 14 days in culture
Description: In order to evaluate the survival of human oligodendrocytes or its progenitor cells in culture, a specific dead cell labeling (Live/dead viability/cytotoxicity kit for mammalian cells, Invitrogen, molecular probes, L3223) was used. A culture of differentiated oligodendrocytes and oligodendrocytes progenitor culture sorted by O4+ or CD140+ MACS sorting respectively were obtained. The effect of recombinant human IFN-Y (R&D systems, Biotest, 285-IF-100) was tested on oligodendrocytes survival. Following 14 days in culture the cells were labeled with dead cell labeling (Ethidium heterodimer 1-red labeling) and O4 labeling (green). […] Such an assay gives complementary results on the effect of tested compound on oligodendrocytes survival.

hES-OPC = test: Differentiation assay; dose response of Noggin on hES-OPC (O4/DAPI staining, Cellomics neuronal profiling); assay type: cell-based, human
Description: 5000 hES-OPC were seeded in each well of Matrigel and PDL-coated 96 well black clear plates (CI-3603, Corning). The medium used for the experiment comprised DMEM/F12 with 0.5% (v/v) N2 supplement (Invitrogen), 1% (v/v) B27 supplement, Glutamax and 100 U/ml penicillin and 100 μg/ml streptomycin (Biological Industries, IL). The cells were deprived from growth factors 24 hours prior to seeding. 12 hours following seeding, increasing doses of Noggin (Preprotech, Israel) were supplemented to the media for the ten days of differentiation. The Noggin doses ranged between 15 nM to 0.015 nM (450 ng/ml to 0.45 ng/ml) with 3.16 fold dilutions (square root of 10) in the presence of 0.1% DMSO and 50 μg/ml Vitamin C. Samples without Noggin in the presence of 0.1% DMSO and 50 μg/ml Vitamin C served as negative control. The media was changed every other day by replenishing ⅔ of the media. On day ten, the wells were fixed using 4% paraformaldehyde (PFA) for further O4 and Dapi staining.
Cells were fixed using 4% paraformaldehyde (PFA), washed with PBS and kept at 4° C. before staining. Non-specific staining was blocked with normal goat serum (5% w/v in PBS) for 30 minutes at RT. Primary mouse monoclonal (mMc) and rabbit polyclonal antibodies, diluted in 1% goat serum, were as described in Table 2, herein below. All staining was followed by the nuclear fluorescent dye DAPI (Sigma, 0.05 μg/ml). All coverslips were mounted in Mowiol (Calbiochem, La Jolla, Calif.). An Olympus IX-70 FLA microscope with a DVC-1310C digital camera (DVC, Austin, Tex.) was used and images processed with Photoshop and analyzed with Image-Pro-Plus software (Media Cybernetics, Silver Spring, Md.) to measure Integrated Optic Density (IOD) of color-specific pixels and MBP positive fiber length. […]
BMP signaling negatively regulates oligodendrocyte lineage development, and it has been shown that Noggin, an inhibitor of BMP signaling, promotes the differentiation of ES-derived oligodendrocytes. As a proof of concept that effects of drugs on oligodendrocyte differentiation can be quantified, the inventors searched for the optimal concentration of Noggin to be used to promote differentiation. […] Nuclear DNA staining with DAPI was used to quantify the cell number per field, and oligodendrocytes were characterized by staining with O4. […] Similarly, O4 positive processes (green) were counted and measured only if attached to O4 cell body. Places where one process becomes two were counted as branch point (FIGS. 3D-E, yellow circles). The numbers of processes, their lengths, and the number of branch points per O4 positive cell body were counted. […] Thus, it may be concluded that the present assay is capable of quantifying the effect of Noggin. […]

B1: IFN-Y: recombinant human IFN-Y (R&D systems, Biotest, 285-IF-100) (protein, UniProt P01579 24-161, looked up)
Interferon gamma: QDPYVKEAENLKKYFNAGHSDVADNGTLFLGILKNWKEESDRKIMQSQIVSFYFKLFKNFKDDQSIQKSVETIKEDMNVKFFNSNKKKRDDFEKLTNYSVTDLNVQRKAIHELIQVMAELSPAAKTGKRKRSQMLFRG
- percentage of dead cells (human oligodendrocytes; Ethidium heterodimer 1 labeling, FIG. 12E): increased the percentage of dead cells
- number of differentiated oligodendrocytes (O4+ cells) (human oligodendrocytes; O4 labeling, FIG. 12F): decreased the number of differentiated oligodendrocytes

B2: Noggin: an inhibitor of BMP signaling (Preprotech, Israel) (protein, UniProt Q13253 28-232, looked up)
Noggin: QHYLHIRPAPSDNLPLVDLIEHPDPIFDPKEKDLNETLLRSLLGGHYDPGFMATSPPEDRPGGGGGAAGGAEDLAELDQLLRQRPSGAMPSEIKGLEFSEGLAQGKKQRLSKKLRRKLQMWLWSQTFCPVLYAWNDLGSRFWPRYVKVGSCFSKRSCSVPEGMVCKPSKSVHLTVLRWRCQRRGGQRCGWIPIQYPIISECKCSC
- morphology of O4 positive OLs versus absence of Noggin (hES-OPC; Noggin added after growth factor removal, FIGS. 3A-C): stimulates the emergence of OLs with longer and multiple processes
- number of O4 positive cell per well (hES-OPC; ten days differentiation with noggin treatment): not changed
- process numbers per cell, total process length per well, number of branch points per cell (hES-OPC; ten days differentiation, O4 positive cells, serial dilutions of Noggin): correlated with Noggin concentration
- EC50 (hES-OPC; ten days without growth factors, O4 staining, triplicate, FIG. 3F, read-out: EC50 (50% of the maximal effect), curve generated by integrating process numbers per cell, total process length per well and number of branch points per cell): 0.157 nM
